Experimental data from US11965039B2, “Compstatin analogues and their medical uses” (priority 2018, dated 2024).
Positions of bridges follow the written chain, without caps; N, C: chain ends. Non-standard residues stand in square brackets, D forms with d. Trp(1-Me) = Cn1cc(C[C@H](N)C(=O)O)c2ccccc21; Sar = CNCC(=O)O

B1: Compound 79 (peptide)
peptide: Ac-SEFCI[Trp(1-Me)]QDW[Sar]EHRC[Sar]E-NH2
modifications: disulfide 4-14
SMILES: CC[C@H](C)[C@@H]1NC(=O)[C@@H](NC(=O)[C@H](Cc2ccccc2)NC(=O)[C@H](CCC(=O)O)NC(=O)[C@H](CO)NC(C)=O)CSSC[C@@H](C(=O)N(C)CC(=O)N[C@@H](CCC(=O)O)C(N)=O)NC(=O)[C@H](CCCNC(=N)N)NC(=O)[C@H](Cc2c[nH]cn2)NC(=O)[C@H](CCC(=O)O)NC(=O)CN(C)C(=O)[C@H](Cc2c[nH]c3ccccc23)NC(=O)[C@H](CC(=O)O)NC(=O)[C@H](CCC(N)=O)NC(=O)[C@H](Cc2cn(C)c3ccccc23)NC1=O
B2: Compound 74 (peptide)
peptide: Ac-SEFCI[Trp(1-Me)]QDWGEHRC[Sar]GAES-NH2
modifications: disulfide 4-14
SMILES: CC[C@H](C)[C@@H]1NC(=O)[C@@H](NC(=O)[C@H](Cc2ccccc2)NC(=O)[C@H](CCC(=O)O)NC(=O)[C@H](CO)NC(C)=O)CSSC[C@@H](C(=O)N(C)CC(=O)NCC(=O)N[C@@H](C)C(=O)N[C@@H](CCC(=O)O)C(=O)N[C@@H](CO)C(N)=O)NC(=O)[C@H](CCCNC(=N)N)NC(=O)[C@H](Cc2c[nH]cn2)NC(=O)[C@H](CCC(=O)O)NC(=O)CNC(=O)[C@H](Cc2c[nH]c3ccccc23)NC(=O)[C@H](CC(=O)O)NC(=O)[C@H](CCC(N)=O)NC(=O)[C@H](Cc2cn(C)c3ccccc23)NC1=O
B3: Compound 77 (peptide)
peptide: Ac-SEFCI[Trp(1-Me)]QDW[Sar]EHRCTEA-NH2
modifications: disulfide 4-14
SMILES: CC[C@H](C)[C@@H]1NC(=O)[C@@H](NC(=O)[C@H](Cc2ccccc2)NC(=O)[C@H](CCC(=O)O)NC(=O)[C@H](CO)NC(C)=O)CSSC[C@@H](C(=O)N[C@H](C(=O)N[C@@H](CCC(=O)O)C(=O)N[C@@H](C)C(N)=O)[C@@H](C)O)NC(=O)[C@H](CCCNC(=N)N)NC(=O)[C@H](Cc2c[nH]cn2)NC(=O)[C@H](CCC(=O)O)NC(=O)CN(C)C(=O)[C@H](Cc2c[nH]c3ccccc23)NC(=O)[C@H](CC(=O)O)NC(=O)[C@H](CCC(N)=O)NC(=O)[C@H](Cc2cn(C)c3ccccc23)NC1=O
B4: Compound 76 (peptide)
peptide: Ac-SEFCI[Trp(1-Me)]QDW[Sar]EHRC[Sar]EA-NH2
modifications: disulfide 4-14
SMILES: CC[C@H](C)[C@@H]1NC(=O)[C@@H](NC(=O)[C@H](Cc2ccccc2)NC(=O)[C@H](CCC(=O)O)NC(=O)[C@H](CO)NC(C)=O)CSSC[C@@H](C(=O)N(C)CC(=O)N[C@@H](CCC(=O)O)C(=O)N[C@@H](C)C(N)=O)NC(=O)[C@H](CCCNC(=N)N)NC(=O)[C@H](Cc2c[nH]cn2)NC(=O)[C@H](CCC(=O)O)NC(=O)CN(C)C(=O)[C@H](Cc2c[nH]c3ccccc23)NC(=O)[C@H](CC(=O)O)NC(=O)[C@H](CCC(N)=O)NC(=O)[C@H](Cc2cn(C)c3ccccc23)NC1=O
B5: Compound 78 (peptide)
peptide: Ac-SEFCI[Trp(1-Me)]QDWGEHRC[Sar]E-NH2
modifications: disulfide 4-14
SMILES: CC[C@H](C)[C@@H]1NC(=O)[C@@H](NC(=O)[C@H](Cc2ccccc2)NC(=O)[C@H](CCC(=O)O)NC(=O)[C@H](CO)NC(C)=O)CSSC[C@@H](C(=O)N(C)CC(=O)N[C@@H](CCC(=O)O)C(N)=O)NC(=O)[C@H](CCCNC(=N)N)NC(=O)[C@H](Cc2c[nH]cn2)NC(=O)[C@H](CCC(=O)O)NC(=O)CNC(=O)[C@H](Cc2c[nH]c3ccccc23)NC(=O)[C@H](CC(=O)O)NC(=O)[C@H](CCC(N)=O)NC(=O)[C@H](Cc2cn(C)c3ccccc23)NC1=O

Biological target: Human C3 (Complement tech cat #A113c) (human, UniProt P01024 23-1663)
Test: cell-based or functional assay

Sequence of Human C3 (Complement tech cat #A113c) (P01024 23-1663 limits assumed): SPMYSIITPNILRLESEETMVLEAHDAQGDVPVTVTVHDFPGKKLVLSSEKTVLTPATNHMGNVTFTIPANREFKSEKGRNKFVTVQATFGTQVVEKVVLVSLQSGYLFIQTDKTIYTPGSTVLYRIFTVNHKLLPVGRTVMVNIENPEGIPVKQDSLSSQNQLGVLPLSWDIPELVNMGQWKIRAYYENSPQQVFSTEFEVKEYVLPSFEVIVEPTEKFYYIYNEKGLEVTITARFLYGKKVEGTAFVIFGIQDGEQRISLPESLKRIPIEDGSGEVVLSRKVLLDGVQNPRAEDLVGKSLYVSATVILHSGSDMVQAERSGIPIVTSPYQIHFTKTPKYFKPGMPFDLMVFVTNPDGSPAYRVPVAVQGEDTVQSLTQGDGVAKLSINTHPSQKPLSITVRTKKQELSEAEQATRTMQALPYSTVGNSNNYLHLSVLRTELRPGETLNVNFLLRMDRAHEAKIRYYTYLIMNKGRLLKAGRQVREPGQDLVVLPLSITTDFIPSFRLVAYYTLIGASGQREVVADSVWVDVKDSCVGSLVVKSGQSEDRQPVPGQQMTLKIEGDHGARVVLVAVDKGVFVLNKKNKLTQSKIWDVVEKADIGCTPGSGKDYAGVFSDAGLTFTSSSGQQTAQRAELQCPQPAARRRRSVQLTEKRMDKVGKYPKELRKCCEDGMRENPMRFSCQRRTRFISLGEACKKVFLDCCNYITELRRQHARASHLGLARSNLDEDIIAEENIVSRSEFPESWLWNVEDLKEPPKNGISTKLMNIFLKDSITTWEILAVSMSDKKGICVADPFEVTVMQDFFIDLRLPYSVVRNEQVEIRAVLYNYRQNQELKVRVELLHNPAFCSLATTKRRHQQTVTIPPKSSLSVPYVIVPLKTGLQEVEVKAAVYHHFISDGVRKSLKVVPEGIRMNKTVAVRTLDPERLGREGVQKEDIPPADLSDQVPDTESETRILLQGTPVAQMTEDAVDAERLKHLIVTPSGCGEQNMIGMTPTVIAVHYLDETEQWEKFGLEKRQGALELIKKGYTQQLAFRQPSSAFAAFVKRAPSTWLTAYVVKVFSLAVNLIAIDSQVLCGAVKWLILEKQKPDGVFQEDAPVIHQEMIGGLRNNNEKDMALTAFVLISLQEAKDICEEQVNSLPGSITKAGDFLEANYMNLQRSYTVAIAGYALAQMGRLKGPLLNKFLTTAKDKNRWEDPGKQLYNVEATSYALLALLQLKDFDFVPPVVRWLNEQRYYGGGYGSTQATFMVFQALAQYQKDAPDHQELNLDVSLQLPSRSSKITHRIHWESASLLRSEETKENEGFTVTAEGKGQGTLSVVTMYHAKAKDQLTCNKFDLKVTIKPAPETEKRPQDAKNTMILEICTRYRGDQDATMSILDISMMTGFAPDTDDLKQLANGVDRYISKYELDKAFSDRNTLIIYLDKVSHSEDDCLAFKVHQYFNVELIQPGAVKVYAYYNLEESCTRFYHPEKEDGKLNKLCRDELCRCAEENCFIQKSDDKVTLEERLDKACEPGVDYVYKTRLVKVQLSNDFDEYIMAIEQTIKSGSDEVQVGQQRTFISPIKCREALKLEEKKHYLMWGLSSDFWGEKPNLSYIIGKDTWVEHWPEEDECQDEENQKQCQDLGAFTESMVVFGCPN

Binder	inhibition of hemolysis IC50 [nM]
B1	< 100
B2	< 100
B3	< 100
B4	< 100
B5	< 100
